B1: P283BR9P1363_G7 (designed binder)
chain: LPAPKNLVVSRVTEDSARLSWSAKKFPRHFDSFLIQYQESEKVGEAIVLTVPGSERSYDLTGLKPGTEYTVSIYGVDVKWEGNRPVASNPLSAIFTT
notes: FN3 domain
B2: P283BR9P1363_E6 (designed binder)
chain: LPAPKNLVVSRVTEDSARLSWYARKFISPFDSFLIQYQESEKVGEAIVLTVPGSERSYDLTGLKPGTEYTVSIYGVDVKWEGNRPVASNPLSAIFTT
notes: FN3 domain
B3: P283BR9P1363_F4 (designed binder)
chain: LPAPKNLVVSRVTEDSARLSWERIVQTPHFDSFLIQYQESEKVGEAIVLTVPGSERSYDLTGLKPGTEYTVSIYGVDVKWEGNRPVASNPLSAIFTT
notes: FN3 domain
B4: P283BR9P1363_G2 (designed binder)
chain: LPAPKNLVVSRVTEDSARLSWPKNQTNRHFDSFLIQYQESEKVGEAIVLTVPGSERSYDLTGLKPGTEYTVSIYGVDVKWEGNRPVASNPLSAIFTT
notes: FN3 domain
B5: P283HR7P1368_G1 (designed binder)
chain: LPAPKNLVVSRVTEDSARLSWTAPDAAFDSFLITYWEIEPEGEAIFLGVPGSERSYDLTGLKPGTEYRVQINGVKGGTISYPLFAGFTT
notes: FN3 domain
B6: P283BR9P1363_F6 (designed binder)
chain: LPAPKNLVVSRVTEDSARLSWPEEAVTATSFDSFLIQYQESEKVGEAIVLTVPGSERSYDLTGLKPGTEYTVSIYGVDVKWEGNRPVASNPLSAIFTT
notes: FN3 domain
B7: P283BR9P1363_F2 (designed binder)
chain: LPAPKNLVVSRVTEDSARLSWYRPDNRAGAFDSFLIQYQESEKVGEAIVLTVPGSERSYDLTGLKPGTEYTVSIYGVDVKYDIDSRPISSNPLSAIFTT
notes: FN3 domain
B8: P283ER9P1365_C1 (designed binder)
chain: LPAPKNLVVSRVTEDSARLSWTAPDAAFDSFYIPYWESEVYGEAIALPVTGSERSYDLTGLKPGTEYQVSIIGVKGGVYSQPLAAIFTT
notes: FN3 domain
B9: P283HR7P1368_F10 (designed binder)
chain: LPAPKNLVVSRVTEDSARLSWTAPDAAFDSFYIPYRESEFRGEAIALPVPGSERSYDLTGLKPGTKYRVIIIGVKGGEFSQPLGAIFTT
notes: FN3 domain
B10: P283ER9P1365_F4 (designed binder)
chain: LPAPKNLVVSRVTEDSARLSWTAPDAAFDSFYIPYRESEFRGEAIALPVPGSERSYDLTGLKPGTKYSVIIIGVKGGEFSQPLGAIFTT
notes: FN3 domain
B11: P283ER9P1365_H3 (designed binder)
chain: LPAPKNLVVSRVTEDSARLSWTAPDAAFDSFYIPYRESEFRGEAIALPVPGSERSYDLTGLKPGTKYRVIIIGVKGGEFSQPLSAIFTT
notes: FN3 domain
B12: P283ER9P1365_G1 (designed binder)
chain: LPAPKNLVVSRVTEDSARLSWTAPDAAFDSFYIPYRESEFRGEAIALSVPGSERSYDLTGLKPGTKYRVIIIGVKGGEFSQPLGAIFTT
notes: FN3 domain
B13: P283HR7P1368_H8 (designed binder)
chain: LPAPKNLVVSRVTEDSARLSWTAPDAAFDSFGITYLDPRNGEAISLNVPGSERSYDLTGLKPGTEYWVVIIGVKGGINSYPLGASFTT
notes: FN3 domain
B14: P283HR7P1368_F6 (designed binder)
chain: LPAPKNLVVSRVTEDSARLSWTAPDAAFDSFGIGYIEWVHRGEAISLHVPGSERSYDLTGLKPGTEYVVAIVGVKGGEPSTPLGAPFTT
notes: FN3 domain
B15: P283ER9P1365_A1 (designed binder)
chain: LPAPKNLVVSRVTEDSARLSWTAPDAAFDSFGIAYVEWWHRGEAISLPVPGSERSYDLTGLKPGTEYNVIITGVKGGIPSHPLGAIFTT
notes: FN3 domain
B16: P283HR7P1368_G10 (designed binder)
chain: LPAPKNLVVSRVTEDSARLSWTAPDAAFDSFGIAYVEWWHRGEAISLPVPGSERSYDLTGLKPGTEYWVTILGVKGGIISTPLGASFTT
notes: FN3 domain

Tests used:
[1] = molecular target: T1, human CD8 alpha (CD8A) on primary human CD8+ T cells (human, UniProt P01732 22-235); test: flow cytometry, human CD8+ T cells
T1 construct: whole, on cells; also called hCD8A

[2] = molecular target: T2, cynomolgus monkey CD8 alpha on primary cynomolgus CD8+ T cells (cynomolgus monkey, UniProt P01732 23-235 (human entry)); test: flow cytometry, cyno CD8+ T cells
T2 construct: also called Cyno CD8alpha; cyno CD8A

human CD8A-Fc (in house) = molecular target: T3, human CD8A-Fc (in house) (human, UniProt P01732 22-182, limits assumed); test: SPR (ProteOn), captured hCD8A-Fc
T3 construct: captured by goat anti-human Fc on the ProteOn chip; also called hCD8A-Fc; recombinant human CD8 alpha; not shown: linker/tag and Fc of human IgG1
T3 sequence (P01732 22-182 limits assumed): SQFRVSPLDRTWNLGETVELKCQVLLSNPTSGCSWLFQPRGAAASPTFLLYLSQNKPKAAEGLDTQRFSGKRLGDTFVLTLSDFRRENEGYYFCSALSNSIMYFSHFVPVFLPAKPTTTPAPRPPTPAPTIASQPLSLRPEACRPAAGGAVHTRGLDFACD

T2 sequence (P01732 other isoform, or with tags, fused parts or gaps limits assumed): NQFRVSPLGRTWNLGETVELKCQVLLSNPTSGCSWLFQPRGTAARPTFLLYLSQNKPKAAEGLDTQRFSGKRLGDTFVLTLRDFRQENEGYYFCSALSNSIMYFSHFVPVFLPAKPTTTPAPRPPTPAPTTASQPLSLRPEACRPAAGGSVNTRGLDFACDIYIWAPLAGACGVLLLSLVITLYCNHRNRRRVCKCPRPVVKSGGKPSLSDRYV
T1 sequence (P01732 22-235): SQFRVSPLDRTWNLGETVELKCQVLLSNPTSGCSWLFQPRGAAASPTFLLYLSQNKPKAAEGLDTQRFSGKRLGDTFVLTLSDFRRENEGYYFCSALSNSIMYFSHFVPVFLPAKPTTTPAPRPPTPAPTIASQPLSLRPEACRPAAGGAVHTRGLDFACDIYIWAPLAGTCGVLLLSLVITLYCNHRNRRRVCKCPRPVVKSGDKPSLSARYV

Row | Binder | Human T-cell Binding 0.2 uM (MFI) [1] [MFI] | Human T-cell Binding 2 uM (MFI) [1] [MFI] | Cyno T-cell Binding 0.2 uM (MFI) [2] [MFI] | Cyno T-cell Binding 2 uM (MFI) [2] [MFI] | koff (human CD8A-Fc (in house)) [s⁻¹]
1 | B1 | 2340 | 4640 | 3020 | 7210 | 4.01e-05
2 | B2 | 2080 | 8240 | 3720 | 16800 | 0.00136
3 | B3 | 2960 | 11900 | 4480 | 20200 | 0.000155
4 | B4 | 3230 | 9640 | 5380 | 15900 | 0.000122
5 | B5 | 4940 | 31300 | 11600 | 69800 | 0.00215
6 | B6 | 3230 | 10600 | 4570 | 31600 | 8.21e-05
7 | B7 | 3270 | 14500 | 5280 | 33300 | 0.000288
8 | B8 | 644 | 8000 | 1880 | 24000 | 0.00115
9 | B9 | 2660 | 18800 | 1020 | 16100 | 0.000165
10 | B10 | 2600 | 24100 | 2040 | 43200 | 0.000216
11 | B11 | 953 | 18000 | 436 | 19600 | 0.000375
12 | B12 | 318 | 1280 | 383 | 489 | 0.00367
13 | B13 | 1610 | 22800 | 4890 | 35900 | 0.000763
14 | B14 | 3510 | 14300 | 3540 | 20600 | 0.00018
15 | B15 | 3860 | 25500 | 1360 | 9680 | 0.000467
16 | B16 | 753 | 8120 | 2660 | 23800 | 0.00145

Reference: patent US20210032312A1 (Janssen / Centocor, published 2021)
